Results published in US20250161428A1, “PREVENTING/TREATING PSEUDOMONAS AERUGINOSA INFECTION” (priority 2022, published 2025).

B1: 3C4: mouse IgG2b monoclonal antibody to the A-PS terminus; VH SEQ ID NO: 22, VL SEQ ID NO: 26 (antibody, V domains shown)
VH: EVKLVESGGGLVQPGGSLRLSCATSGFTFTDYYMSWVRQPPGKALEWLGFIRNKANGYTTEYSASVKGRFTISRDNSQSILYLQMNTLRAEDSATYYCTRAIYYGYDGFAYWGQGTLVTVSA
VL: DAVMTQTPLSLPVSLGDQASISCRSSQSLENSNGNTYLNWYLQKPGQSPQLLIYRVSNRFSGVLDRFSGSGSGTDFTLKISRVEAEDLGVYFCLQVTHVPFTFGSGTKLEIK
B2: 1B1: mouse IgM monoclonal antibody to the A-PS terminus; VH SEQ ID NO: 4, VL SEQ ID NO: 8 (antibody, V domains shown)
VH: DVKLVESGGGLVKVGGSLKISCAASGFPFSDYYMAWVGQTPEKRLELVAAINGDGGTTYYPDTVKGRFIISRDNAKNTLYLQMSSLRSEDTALYYCVRGRRITGTGAIDYWGQGTSVTVSS
VL: QIFLTQSPVILSASPGEKVTMTCSATSNISYMYRYQQKPGSSPKPWIYGTSNLASRVPARFSGSGSGTSYSLTISNMEAEDAATYYCQIYHSYPYTFGGGTKLEIK

Assays:
[1] = tested on: killed whole cells of P. aeruginosa strains; test: ELISA binding of mAbs to killed whole cells; conditions: for range of P. aeruginosa strains recognised: summary statement, serotype strains and clinical isolates
Protocol: FIGS. 11A, 11B, and 11C show ELISA analysis of binding of 1B1 (FIG. 11A), 3B8 (FIG. 11B), and 3C4 (FIG. 11C) purified monoclonal antibodies (mAbs) (all at 100 μg/ml) to killed whole cells of P. aeruginosa strains NRCC #'s 6678, 6668-70, 6954-60 and negative control strains M. catarrhalis 6541 and N. meningitidis 6263 (see Table 1 for full details of strains).
(§1) ELISA: The binding of anti-P. aeruginosa A-band terminal epitope mAbs and polyclonal sera to BSA conjugates, purified LPS and to whole cells was evaluated by ELISA as described previously.

[2] = tested on: purified PAO1 LPS; test: mAb competition ELISA; assay type: binding, P. aeruginosa; conditions: PAO1 LPS coated plates; 3C4 at 62.5 μg/ml
Protocol: The plate was washed and mAb 3C4 was added at a constant concentration (62.5 μg/ml). A secondary mAb specific for mAb 3C4 was added and absorbance was measured after a colour reagent was added (line with square markers). The absorbance obtained when 3C4 was added to the plate without 1B1 competition is shown by the line with a triangle marker.
The plate was washed and mAb 3C4 was added at a constant concentration (62.5 μg/ml). A secondary mAb specific for mAb 3C4 was added and absorbance was measured after a colour reagent was added (line with square markers). The absorbance obtained when 3C4 was added to plate without 3B8 competition is shown by the line with a triangle marker.
mAb competition ELISA: Wells of Nunc Maxisorp EIA plates were coated with 1 μg of P. aeruginosa LPS in PBS overnight at 4° C. and then brought to RT before use. Plates were blocked with 1% BSA-PBS for 1 h at RT, and then wells were washed with PBS-T. One mAb (1B1 or 3B8) was titrated and added to the plate for 1 h at RT. Following washing with PBS-T, the second mAb (3C4) was added at a pre-determined concentration and allowed to incubate for 1 h at RT. Following washing with PBS-T, AP-labeled goat anti-mouse IgG2b (Southern Biotech) specific for mAb 3C4, diluted 1:250 in 1% BSA-PBS was added for 1 h at RT. The plates were then washed with PBS-T and developed with Phosphatase Substrate System (Kirkegaard and Perry Laboratories). After 60 min absorbance was measured at 405 nm using a microtiter plate reader.

[3] = tested on: purified LPS antigens of P. aeruginosa strains; test: ELISA binding of mAbs to purified LPS
Protocol: as §1

Molecule | range of P. aeruginosa strains recognised [1] | epitope relation in competition ELISA with mAb 3C4 [2] | recognition of purified LPS from A-band locus mutants PAO1 (wzy::Gm)(Δpa5457) and PAO1 (wzy::Gm)(Δpa5458) [3] | cross reactivity to a set of clinical isolates ([1]; killed whole cells, purified mAbs at 100 μg ml^−1) | cross reactivity to killed whole cells of A-band locus mutants and ATCC type strains of common clinical serotypes ([1]; purified mAbs at 100 μg/ml)
B1 | recognition restricted to the wt serotype 5 strains PAO1 BAA-47 and 5937 | recognised similar overlapping epitopes | – | – | –
B2 | majority of P. aeruginosa strains tested were recognised | recognised a unique epitope compared to 3C4 | could recognise | broad cross reactivity | the only mAb that was cross reactive
